This note sets out measurements from patent US20200131474A1, “METHODS AND COMPOSITIONS FOR OCULAR CELL THERAPY” (Novartis AG, priority 2018, published 2020).

The subject of data set [1] is beta-2-microglobulin gene. Put plainly: CRISPR/Cas9-mediated deletion of B2M in LSCs by nucleofection, FACS analysis. The format is cell-based, human. The following applies: Cas9 protein (SEQ ID NO: 107):sgRNA 1:10 nucleofection, LSCs passage 0, FACS. The protocol:
The sgRNA ID SEQ NO 120 was tested for the ability to reduce or eliminate expression of B2M in LSCs using a nucleofection approach as follows.
LSCs at passage 0 were trypsinized with TryLE™Express Enzym (ThermoFisher, Cat #12605010) for 15 min in 5% CO2 at 37° C. After scraping the cells, the reaction was stopped by using cell culture medium containing 10% Serum and transferred to a falcon tube. After counting cells using Vi-cell 200′000 cells were prepared per reaction by transferring 200′000 cells in single tubes and centrifuged at 1000 rpm for 5 min.
The supernatant was aspirated using manually pipetting to avoid cell loss and the cells were resuspended in the Stem cell nucleofector solution II (Lonza, Cat #VPH-5022). Resuspend cells in nucleofector solution immediately before adding the Cas9 protein:sgRNA mixture. A stock of 100 μM (3.23 μg/μl) was prepared resuspending 5.1 nanomoles of single-guideRNA (sgRNA) in 51 μl 10 mM Tris buffer pH7.4. […]
In order to prevent cells sticking to the wall, collection tubes were filled with FACS buffer for 30 minutes before the sort and aspirated before adding the collection medium. […] FACS data were analyzed using BD FACSDiva software and FlowJo software.

The subject of the next data set is CD8+ T-cells. Put plainly: LSC/T-cell reaction assay (gene edited LSCs co-cultured with CD8+ T-cells). The class given is cell-based, human. The following applies: B2M/HLA-Class I negative edited LSCs co-cultured 10 days with CD8+ T-cells from 4 donors. The procedure: An LSC/T-cell assay was performed in flat bottom 96well synthemax coated plates in duplicates and incubated in 5% CO2 at 37° C. for 10 days. RPMI-1640 supplemented with HEPES (100 μM), non-essential aas (10×), sodium pyruvate (10 mM), 2-Mercapthoethanol (10×), 10% FBS and 1% Penicillin-Streptomycin (Gibco by Life Technologies) was used as medium for co-culture. Alternatively, RPMI-1640 supplemented with HEPES (10 mM), non-essential aas (1×), sodium pyruvate (1 mM), 2-Mercapthoethanol (1×), 10% FBS and 1% Penicillin-Streptomycin (Gibco by Life Technologies) was used as medium for co-culture.
One day before co-culture, LSCs (stimulator cells) were passed and cultured to a confluency of around 70% (30′000-50′000 cells) and cultured with LSC medium including compound. On day two, peripheral blood mononuclear cells (PBMC) were separated using EDTA blood with the Ficoll-Paque method (GE Healthcare Life Sciences, cat #17-1440-03). […]
After 10 days, CD8+ cells were transferred to a U-bottomed 96-well plate and washed 3 times using autoMAC rinsing solution (Miltenyi Biotec, Cat #130-091-222) including MACS BSA stock solution (Miltenyi Biotec, Cat #130-091-376). Cells were measured on a BD LSRFortessa X-20. FACS data were analyzed using BD FACSDiva software and FlowJo software.

Data set [2] deals with genomic DNA purified from male human peripheral blood mononuclear cells. In words: Biochemical method for potential off-target genomic sites cleaved by Cas9 and B2M guides. The note with it: guide concentration of 64 nM. The text has this: A biochemical method (See, e.g., Cameron et al., Nature Methods. 6, 600-606; 2017) was used to determine potential off-target genomic sites cleaved by Cas9 and selected B2M guides.

In data set [3] the test system is potential off-target sites. In words: Off-target activity detection in limbal stem cells by targeted PCR and NGS. The format is cell-based, human. The note with it: edited LSCs vs non-edited PBMCs; positive sites of sequenced loci. The protocol:
Potential CRISPR/Cas9-mediated cutting sites identified above were evaluated using targeted PCR and NGS in genome-edited expanded LSCs.
Selected sgRNAs (SEQ ID NO: 120, 162, 166, 167, 171, and 175) were further analyzed by amplicon sequencing in edited and non-edited cells. Primers flanking the potential off-target sites for each guide were used to detect indels by NGS analysis in edited LSCs and non-edited peripheral blood mononuclear cells. Sites that had either (1) a difference in mean indel percentage between edited and unedited cells greater than 0.5%; or (2) a p value less than 0.05 between edited and unedited indel were further analyzed. NGS sequence reads for such sites were assessed for characteristic indel patterns near the putative Cas9 cut site.

B1: 1-CR004366: gRNA targeting B2M (Dharmacon); targeting domain GAGUAGCGCGAGCACAGCUA (SEQ ID NO: 108); sgRNA SEQ ID NO: 120 (nucleic acid)
guide: GAGUAGCGCGAGCACAGCUAGUUUUAGAGCUAGAAAUAGCAAGUUAAAAUAAGGCUAGUCCGUUAUCAACUUGAAAAAGUGGCACCGAGUCGGUGCUUUU
modifications: listed as RNA, chemistry not given here
On to B1, for which, in data set [1], the “LSCs with deletion of B2M and elimination of HLA A, B and C (cells not expressing B2M)” value was “about 70%”. The T-cell immunoresponse entry in the data set on CD8+ T-cells was “almost completely eliminated”. The “off-target Site_Count” value in data set [2] came to 69. For the same molecule, the “Number of sites positive for off-target activity in LSCs” value in data set [3] is “zero”.
